This note sets out measurements from patent publication US20250296999A1.

The target in the assay is alpha v beta 3 integrin on human podocytes (human) (UniProt P06756).
Chain of alpha v beta 3 integrin on human podocytes (human) (P06756 31-1048, chain 1 of 2): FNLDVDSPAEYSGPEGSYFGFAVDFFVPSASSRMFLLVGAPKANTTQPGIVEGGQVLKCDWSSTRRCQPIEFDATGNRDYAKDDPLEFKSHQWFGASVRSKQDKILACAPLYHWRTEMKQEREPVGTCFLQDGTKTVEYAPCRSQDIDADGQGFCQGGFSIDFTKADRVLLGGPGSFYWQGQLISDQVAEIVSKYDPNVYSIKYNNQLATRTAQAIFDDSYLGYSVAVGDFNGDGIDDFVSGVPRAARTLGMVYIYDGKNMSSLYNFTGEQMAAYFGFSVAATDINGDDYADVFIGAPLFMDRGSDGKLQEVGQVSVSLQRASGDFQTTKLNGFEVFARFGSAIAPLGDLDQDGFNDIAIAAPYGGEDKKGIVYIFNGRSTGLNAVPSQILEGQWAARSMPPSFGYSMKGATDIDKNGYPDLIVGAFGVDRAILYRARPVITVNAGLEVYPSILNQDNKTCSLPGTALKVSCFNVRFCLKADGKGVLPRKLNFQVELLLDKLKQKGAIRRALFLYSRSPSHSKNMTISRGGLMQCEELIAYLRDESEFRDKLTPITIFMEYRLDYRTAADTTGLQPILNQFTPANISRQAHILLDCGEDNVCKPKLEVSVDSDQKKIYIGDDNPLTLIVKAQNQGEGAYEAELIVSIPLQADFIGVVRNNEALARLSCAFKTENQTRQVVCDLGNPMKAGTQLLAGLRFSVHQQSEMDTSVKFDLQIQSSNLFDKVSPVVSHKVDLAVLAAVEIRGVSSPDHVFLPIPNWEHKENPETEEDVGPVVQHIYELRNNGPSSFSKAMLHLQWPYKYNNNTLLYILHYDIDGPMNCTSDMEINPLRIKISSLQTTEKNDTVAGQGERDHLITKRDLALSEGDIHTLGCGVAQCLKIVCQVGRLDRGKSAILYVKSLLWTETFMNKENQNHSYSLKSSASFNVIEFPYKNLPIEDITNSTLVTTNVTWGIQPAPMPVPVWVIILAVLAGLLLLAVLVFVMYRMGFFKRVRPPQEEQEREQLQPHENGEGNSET
Chain of alpha v beta 3 integrin on human podocytes (human) (P05106 27-788, chain 2 of 2, further chain): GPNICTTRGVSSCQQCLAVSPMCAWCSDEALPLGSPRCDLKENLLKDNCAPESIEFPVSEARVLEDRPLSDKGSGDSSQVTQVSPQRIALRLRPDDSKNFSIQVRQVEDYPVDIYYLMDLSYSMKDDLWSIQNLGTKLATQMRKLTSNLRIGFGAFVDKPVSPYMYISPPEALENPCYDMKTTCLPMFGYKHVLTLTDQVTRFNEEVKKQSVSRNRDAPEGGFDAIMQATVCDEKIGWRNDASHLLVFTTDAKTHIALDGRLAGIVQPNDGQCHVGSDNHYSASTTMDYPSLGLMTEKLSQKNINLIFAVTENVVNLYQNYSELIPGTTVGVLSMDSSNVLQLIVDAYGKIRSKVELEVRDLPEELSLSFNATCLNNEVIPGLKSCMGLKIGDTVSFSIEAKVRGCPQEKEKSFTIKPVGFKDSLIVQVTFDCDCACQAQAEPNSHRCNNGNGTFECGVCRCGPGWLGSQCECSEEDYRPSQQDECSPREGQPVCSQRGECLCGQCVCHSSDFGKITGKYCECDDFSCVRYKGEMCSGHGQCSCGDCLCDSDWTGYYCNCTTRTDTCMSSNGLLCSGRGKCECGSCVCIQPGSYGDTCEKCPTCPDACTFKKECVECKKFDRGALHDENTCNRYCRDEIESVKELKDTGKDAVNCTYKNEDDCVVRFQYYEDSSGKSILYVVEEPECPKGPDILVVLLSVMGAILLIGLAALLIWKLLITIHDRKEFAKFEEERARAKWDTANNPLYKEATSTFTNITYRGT

In general, EC50 (read off the curve) refers to the concentration that produces a half-maximal response. Low readings indicate a more potent agent, high ones a less potent agent. In turn, “human D2D3 protein (C-terminal uPAR fragment, D2D3 protein with Linker) (from UniProt Q03405 100-303) (receptor)” displayed a half-maximal effective concentration (EC50 (read off the curve)) of 2 ng/mL.
